Source: US20100322935A1 (Hoffmann-La Roche, published 2010)

Key:
[1] = target: T1, human EGFR ECD (Extracellular Domain) (human, UniProt P00533 25-645); experiment: SPR (Biacore T100)
T1 construct: extracellular domain; also called EGFR (HER1); HER1
Description: (§1) Briefly, for affinity measurements Goat-Anti-Human IgG, JIR 109-005-098 antibodies were immobilized on a CM5 chip via amine coupling for presentation of the antibodies against human ECD-Fc tagged. […] Biacore T100 Evaluation Software version 1.1.1 was used for analysis of sensorgrams and for calculation of affinity data.
(§2) Binding of the generated antibodies to human ANGPT2 and VEGF was also investigated by surface plasmon resonance using a BIACORE T100 instrument (GE Healthcare Biosciences AB, Uppsala, Sweden). Briefly, for affinity measurements goat<hIgG-Fcg> polyclonal antibodies were immobilized on a CM5 or CM4 chip via amine coupling for presentation of the antibodies against human ANGPT2 and VEGF. […] Biacore T100 Evaluation Software version 1.1.1 was used for analysis of sensorgrams and for calculation of affinity data.

[2] = target: T2, human VEGF165/VEGF121-His (human, UniProt P15692-4 27-191, limits assumed); experiment: SPR (Biacore T100)
T2 construct: R&D Systems or in house purified; also called VEGF-A; hVEGF
T2 sequence (P15692 other isoform, or with tags, fused parts or gaps limits assumed): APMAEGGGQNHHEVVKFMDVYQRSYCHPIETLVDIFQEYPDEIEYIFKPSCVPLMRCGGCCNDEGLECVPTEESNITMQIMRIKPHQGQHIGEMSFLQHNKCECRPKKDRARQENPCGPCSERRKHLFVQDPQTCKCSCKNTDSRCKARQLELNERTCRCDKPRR
Description: as §1, §2

- Kd [1]: 6 nM
- koff [1]: 0.00023 s⁻¹
- kon [1]: 47000 M⁻¹ s⁻¹
- Kd [2]: < 0.1 nM
- koff [2]: < 1e-06 s⁻¹
- kon [2]: 100000 M⁻¹ s⁻¹
B1: trispecific and tetravalent antibody recognizing Angiopoietin-2, VEGF-A, and EGFR according to FIG. 5a (antibody, human IgG1, kappa)
light 1: QPGLTQPPSVSVAPGQTARITCGGNNIGSKSVHWYQQKPGQAPVLVVYDDSDRPSGIPERFSGSNSGNTATLTISRVEAGDEADYYCQVWDSSSDHYVFGTGTKVTVLRTVAAPSVFIFPPSDEQLKSGTASVVCLLNNFYPREAKVQWKVDNALQSGNSQESVTEQDSKDSTYSLSSTLTLSKADYEKHKVYACEVTHQGLSSPVTKSFNRGEC
heavy 1: not shown
light 2: DIQMTQSPSSLSASVGDRVTITCSASQDISNYLNWYQQKPGKAPKVLIYFTSSLHSGVPSRFSGSGSGTDFTLTISSLQPEDFATYYCQQYSTVPWTFGQGTKVEIKSSASTKGPSVFPLAPSSKSTSGGTAALGCLVKDYFPEPVTVSWNSGALTSGVHTFPAVLQSSGLYSLSSVVTVPSSSLGTQTYICNVNHKPSNTKVDKKVEPKSC
heavy 2: not shown
notes: Trispecific, tetravalent: four different chains, each once; CH1/CL (Ckappa) domain exchanged knobs-into-holes antibody; scFvs fused via a (G4S)4 connector; Expressed in HEK293F cells; also called trispecific antibody with disulfide stabilized scFv against EGFR on both heavy chains
